Reference: US20110105397A1, “METHOD FOR TREATING HEART FAILURE WITH STRESSCOPIN-LIKE PEPTIDES” (priority 2009, published 2011)
Where no end group is shown, it is not given here.

T1: human corticotrophin releasing hormone receptor type 2 (CRHR2) (human, UniProt Q13324 1-411)
T1 sequence (looked up): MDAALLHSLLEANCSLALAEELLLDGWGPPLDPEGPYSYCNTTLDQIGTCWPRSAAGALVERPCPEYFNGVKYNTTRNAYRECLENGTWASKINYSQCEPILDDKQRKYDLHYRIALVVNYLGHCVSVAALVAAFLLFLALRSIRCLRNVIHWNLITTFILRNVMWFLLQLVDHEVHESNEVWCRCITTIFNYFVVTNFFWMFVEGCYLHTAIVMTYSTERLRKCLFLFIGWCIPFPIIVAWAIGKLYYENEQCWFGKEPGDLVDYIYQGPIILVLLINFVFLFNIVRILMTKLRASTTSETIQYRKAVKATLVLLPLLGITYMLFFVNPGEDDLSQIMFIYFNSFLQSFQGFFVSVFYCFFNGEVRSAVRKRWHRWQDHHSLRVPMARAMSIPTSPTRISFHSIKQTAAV


Molecular target: T1, human corticotrophin releasing hormone …
Assay: cell-based or functional assay

| Binder | Log DR [log10] | pA50 |
| --- | --- | --- |
| TKFTLSLDVPTNIMNLLFNICKAKNLRAQAAANAHLMAQI-NH2 [Cys-variant stresscopin-like peptide SEQ ID NO: 22] | 0.52 | 9.17 -log10(M) |
| TKFTLSLDVPTNIMNLLFNIAKAKNLRAQAAACAHLMAQI-NH2 [Cys-variant stresscopin-like peptide SEQ ID NO: 34] | > 3.19 | ~6.32 -log10(M) |
| TKFTLSLDVPTNIMNLLFNIAKAKNLRACAAANAHLMAQI-NH2 [Cys-variant stresscopin-like peptide SEQ ID NO: 30] | 1.28 | 8.4 -log10(M) |
| TKFTLSLDVPTNIMNLLFNIAKAKNLRAQAAANACLMAQI-NH2 [Cys-variant stresscopin-like peptide SEQ ID NO: 36] | 0.42 | 9.1 -log10(M) |
| TKFTLSLDVPTNIMNLCFNIAKAKNLRAQAAANAHLMAQI (NES-PEG (about 20 kDa) on Cys 17; C-terminal amide (-NH2)) [Pegylated Cys-variant stresscopin-like peptide with NES linker and PEG about 20 kDa SEQ ID NO: 71] | ~2.26 | ~7.35 -log10(M) |
| TKFTLSLDVPTNIMNLLCNIAKAKNLRAQAAANAHLMAQI (NES-PEG (about 20 kDa) on Cys 18; C-terminal amide (-NH2)) [Pegylated Cys-variant stresscopin-like peptide with NES linker and PEG about 20 kDa SEQ ID NO: 72] | 1.5 | 8.04 -log10(M) |
| TKFTLSLDVPTNIMNLLFNIAKAKNLRAQAAANAHCMAQI (NES-PEG (about 20 kDa) on Cys 36; C-terminal amide (-NH2)) [Pegylated Cys-variant stresscopin-like peptide with NES linker and PEG about 20 kDa SEQ ID NO: 90] | ~2.17 | ~7.49 -log10(M) |
| TKFTLSLDVPTNIMNLLFNIAKAKNLRAQAAANAHLMAQC (NES-PEG (about 20 kDa) on Cys 40; C-terminal amide (-NH2)) [Pegylated Cys-variant stresscopin-like peptide with NES linker and PEG about 20 kDa SEQ ID NO: 94] | > 2.39 | ~7 -log10(M) |
| TKFTLSLDVPTNIMNLLFNIAKAKNLRAQAAACAHLMAQI (NES-PEG (about 20 kDa) on Cys 33; C-terminal amide (-NH2)) [Pegylated Cys-variant stresscopin-like peptide with NES linker and PEG about 20 kDa SEQ ID NO: 87] | > 3.68 | ~6 -log10(M) |
| TKFTLSLDVPTNIMNLLFNIAKAKNLRAQCAANAHLMAQI (NES-PEG (about 20 kDa) on Cys 30; C-terminal amide (-NH2)) [Pegylated Cys-variant stresscopin-like peptide with NES linker and PEG about 20 kDa SEQ ID NO: 84] | ~2.84 | ~6.82 -log10(M) |
| TKFTLSLDVPTNIMNLLFNIAKAKNLRAQAAANAHLMCQI (NES-PEG (about 20 kDa) on Cys 38; C-terminal amide (-NH2)) [Pegylated Cys-variant stresscopin-like peptide with NES linker and PEG about 20 kDa SEQ ID NO: 92] | 1.55 | 8.12 -log10(M) |
| TKFTLSLDVPTNIMNLLFNIAKAKNLRAQAAANAHLMACI (NES-PEG (about 20 kDa) on Cys 39; C-terminal amide (-NH2)) [Pegylated Cys-variant stresscopin-like peptide with NES linker and PEG about 20 kDa SEQ ID NO: 93] | 1.47 | 8.2 -log10(M) |
| TKFTLSLDVPTNIMNLLFNIAKAKCLRAQAAANAHLMAQI (NES-PEG (about 20 kDa) on Cys 25; C-terminal amide (-NH2)) [Pegylated Cys-variant stresscopin-like peptide with NES linker and PEG about 20 kDa SEQ ID NO: 79] | 1.11 | 8.5 -log10(M) |
| TKFTLSLDVPTNIMNLLFCIAKAKNLRAQAAANAHLMAQI (NES-PEG (about 20 kDa) on Cys 19; C-terminal amide (-NH2)) [Pegylated Cys-variant stresscopin-like peptide with NES linker and PEG about 20 kDa SEQ ID NO: 73] | 1.11 | 8.29 -log10(M) |
| TKFTLSLDVPTNIMNLLFNCAKAKNLRAQAAANAHLMAQI (NES-PEG (about 20 kDa) on Cys 20; C-terminal amide (-NH2)) [Pegylated Cys-variant stresscopin-like peptide with NES linker and PEG about 20 kDa SEQ ID NO: 74] | ~2.28 | ~7.33 -log10(M) |
| TKFTLSLDVPTNIMNLLFNCAKAKNLRAQAAANAHLMAQI-NH2 [Cys-variant stresscopin-like peptide SEQ ID NO: 21] | 0.77 | 8.75 -log10(M) |
| TKFTLSLDVPTNIMNLLFNIAKAKNLRAQAACNAHLMAQI-NH2 [Cys-variant stresscopin-like peptide SEQ ID NO: 33] | 0.45 | 9.07 -log10(M) |
| TKFTLSLDVPTNIMNLLFNIAKAKCLRAQAAANAHLMAQI-NH2 [Cys-variant stresscopin-like peptide SEQ ID NO: 26] | 0.08 | 9.44 -log10(M) |
| TKFTLSLDVPTNIMNLLFNIAKAKNLRAQCAANAHLMAQI-NH2 [Cys-variant stresscopin-like peptide SEQ ID NO: 31] | 1.61 | 8.02 -log10(M) |
| TKFTLSLDVPTNIMNLLFCIAKAKNLRAQAAANAHLMAQI-NH2 [Cys-variant stresscopin-like peptide SEQ ID NO: 20] | 0.52 | 9 -log10(M) |
| TKFTLSLDVPTNIMNLLFNIAKAKNLRCQAAANAHLMAQI-NH2 [Cys-variant stresscopin-like peptide SEQ ID NO: 29] | 0 | 9.47 -log10(M) |
| TKFTLSLDVPTNIMNLLFNIAKCKNLRAQAAANAHLMAQI-NH2 [Cys-variant stresscopin-like peptide SEQ ID NO: 24] | 0.74 | 8.94 -log10(M) |
| TKFTLSLDVPTNIMNLLFNIAKAKNLRAQAAANAHLCAQI-NH2 [Cys-variant stresscopin-like peptide SEQ ID NO: 38] | > 2.95 | ~6.67 -log10(M) |
| TKFTLSLDVPTNIMNLLFNIAKAKNLRAQACANAHLMAQI-NH2 [Cys-variant stresscopin-like peptide SEQ ID NO: 32] | 0.11 | 9.41 -log10(M) |
| TKFTLSLDVPTNIMNLLFNIAKACNLRAQAAANAHLMAQI-NH2 [Cys-variant stresscopin-like peptide SEQ ID NO: 25] | 0.35 | 9.17 -log10(M) |

Results, then the binder that gave them:

| Log DR [log10] | pA50 | Binder |
| --- | --- | --- |
| 0.55 | 9.08 -log10(M) | TKFTLSLDVPTNIMNLLFNIAKAKNLRAQAAANAHLMACI-NH2 [Cys-variant stresscopin-like peptide SEQ ID NO: 40] |
| 0.41 | 9.21 -log10(M) | TKFTLSLDVPTNIMNLLFNIAKAKNLRAQAAANAHLMCQI-NH2 [Cys-variant stresscopin-like peptide SEQ ID NO: 39] |
| 0.82 | 8.79 -log10(M) | TKFTLSLDVPTNIMNLLFNIAKAKNLRAQAACNAHLMAQI (NES-PEG (about 20 kDa) on Cys 32; C-terminal amide (-NH2)) [Pegylated Cys-variant stresscopin-like peptide with NES linker and PEG about 20 kDa SEQ ID NO: 86] |
| 0.98 | 8.48 -log10(M) | TKFTLSLDVPTNIMNLLFNIAKAKNLRAQAAANACLMAQI (NES-PEG (about 20 kDa) on Cys 35; C-terminal amide (-NH2)) [Pegylated Cys-variant stresscopin-like peptide with NES linker and PEG about 20 kDa SEQ ID NO: 89] |
| 1.27 | 8.27 -log10(M) | TKFTLSLDVPTNIMNLLFNIAKCKNLRAQAAANAHLMAQI (NES-PEG (about 20 kDa) on Cys 23; C-terminal amide (-NH2)) [Pegylated Cys-variant stresscopin-like peptide with NES linker and PEG about 20 kDa SEQ ID NO: 77] |
| 1.3 | 8.24 -log10(M) | TKFTLSLDVPTNIMNLLFNICKAKNLRAQAAANAHLMAQI (NES-PEG (about 20 kDa) on Cys 21; C-terminal amide (-NH2)) [Pegylated Cys-variant stresscopin-like peptide with NES linker and PEG about 20 kDa SEQ ID NO: 75] |
| 1.75 | 7.6 -log10(M) | TKFTLSLDVPTNIMNLLFNIAKAKNCRAQAAANAHLMAQI (NES-PEG (about 20 kDa) on Cys 26; C-terminal amide (-NH2)) [Pegylated Cys-variant stresscopin-like peptide with NES linker and PEG about 20 kDa SEQ ID NO: 80] |
| 1.55 | 8.12 -log10(M) | TKFTLSLDVPTNIMNLLFNIAKAKNLRAQAAANCHLMAQI (NES-PEG (about 20 kDa) on Cys 34; C-terminal amide (-NH2)) [Pegylated Cys-variant stresscopin-like peptide with NES linker and PEG about 20 kDa SEQ ID NO: 88] |
| 1.82 | 7.83 -log10(M) | TKFTLSLDVPTNIMNLLFNIAKAKNLCAQAAANAHLMAQI (NES-PEG (about 20 kDa) on Cys 27; C-terminal amide (-NH2)) [Pegylated Cys-variant stresscopin-like peptide with NES linker and PEG about 20 kDa SEQ ID NO: 81] |
| 1.12 | 8.4 -log10(M) | TKFTLSLDVPTNIMNLLFNIAKAKNLRCQAAANAHLMAQI (NES-PEG (about 20 kDa; MW20000) on Cys 28; C-terminal amide (-NH2)) [Pegylated Cys-variant stresscopin-like peptide with NES linker and PEG about 20 kDa SEQ ID NO: 82] |
| 0.89 | 8.51 -log10(M) | TKFTLSLDVPTNIMNLLFNIAKAKNLRAQACANAHLMAQI (NES-PEG (about 20 kDa) on Cys 31; C-terminal amide (-NH2)) [Pegylated Cys-variant stresscopin-like peptide with NES linker and PEG about 20 kDa SEQ ID NO: 85] |
| 1.63 | 7.91 -log10(M) | TKFTLSLDVPTNIMNLLFNIAKAKNLRACAAANAHLMAQI (NES-PEG (about 20 kDa) on Cys 29; C-terminal amide (-NH2)) [Pegylated Cys-variant stresscopin-like peptide with NES linker and PEG about 20 kDa SEQ ID NO: 83] |
| 2.7 | 6.84 -log10(M) | TKFTLSLDVPTNIMNLLFNIACAKNLRAQAAANAHLMAQI (NES-PEG (about 20 kDa) on Cys 22; C-terminal amide (-NH2)) [Pegylated Cys-variant stresscopin-like peptide with NES linker and PEG about 20 kDa SEQ ID NO: 76] |
| > 3.43 | ~6.23 -log10(M) | TKFTLSLDVPTNIMNLLFNIAKAKNLRAQAAANAHLCAQI (NES-PEG (about 20 kDa) on Cys 37; C-terminal amide (-NH2)) [Pegylated Cys-variant stresscopin-like peptide with NES linker and PEG about 20 kDa SEQ ID NO: 91] |
| ~1.52 | ~7.89 -log10(M) | TKFTLSLDVPTNIMNLLFNIAKACNLRAQAAANAHLMAQI (NES-PEG (about 20 kDa) on Cys 24; C-terminal amide (-NH2)) [Pegylated Cys-variant stresscopin-like peptide with NES linker and PEG about 20 kDa SEQ ID NO: 78] |
| 1.13 | 8.55 -log10(M) | TKFTLSLDVPTNIMNLLFNIACAKNLRAQAAANAHLMAQI-NH2 [Cys-variant stresscopin-like peptide SEQ ID NO: 23] |
| 2.07 | 7.45 -log10(M) | TKFTLSLDVPTNIMNLLFNIAKAKNLRAQAAANAHLMAQC-NH2 [Cys-variant stresscopin-like peptide SEQ ID NO: 41] |
| 1.67 | 8.01 -log10(M) | TKFTLSLDVPTNIMNLLCNIAKAKNLRAQAAANAHLMAQI-NH2 [Cys-variant stresscopin-like peptide SEQ ID NO: 19] |
| 0.7 | 8.93 -log10(M) | TKFTLSLDVPTNIMNLLFNIAKAKNLRAQAAANCHLMAQI-NH2 [Cys-variant stresscopin-like peptide SEQ ID NO: 35] |
| 1.05 | 8.58 -log10(M) | TKFTLSLDVPTNIMNLLFNIAKAKNLRAQAAANAHCMAQI-NH2 [Cys-variant stresscopin-like peptide SEQ ID NO: 37] |
| 0.76 | 8.76 -log10(M) | TKFTLSLDVPTNIMNLLFNIAKAKNCRAQAAANAHLMAQI-NH2 [Cys-variant stresscopin-like peptide SEQ ID NO: 27] |
| 1.61 | 9.36 -log10(M) | TKFTLSLDVPTNIMNLLFNIAKAKNLCAQAAANAHLMAQI-NH2 [Cys-variant stresscopin-like peptide SEQ ID NO: 28] |
